Molecular target: HER3 receptor on cells (HER3-transfected NIH 3T3 fibroblasts; SKBR3 cells; BxPC3 cells) (human) (UniProt P21860)
Test: flow cytometry competition on SKBR3 cells; HRG varied against anti-HER3 antibody (H4B-121, control antibody D) at its 50% maximal binding concentration

IC50: 2.5 nM
Substance: heregulin (from UniProt Q02297 177-241) (ligand)

From patent US20140141019A1
